Results: patent publication US20080057063A1 (published 2008)
Positions count from the first letter of the chain named. Where two headings read alike, the source gives them in different places. Values belong to the binder of their own block, whether it stands above or below them.

How the values were obtained:
[1] = target: T1, human αV on parental A375M cells, which express αVβ3 and αVβ5, but not αVβ6 (human, UniProt P06756 31-1048); test: FACS, parental A375M cells (αVβ3, αVβ5)
T1 construct: whole, on cells; Two heterodimers (αVβ3, αVβ5) on one cell line; also called αVβ3 or αVβ5 integrins
Method: For this assay, cross-reactivity was tested on the supernatants using FACS analysis on parental A375M cells, which express αVβ3 and αVβ5, but not αVβ6.
The assays were performed as follows. […] The cells were then pelleted, the supernatant discarded, and resuspended in FACS buffer and incubated for 30 minutes at 37° C. Cells were then washed twice with FACS buffer and resuspended in a final volume of 100 μL FACS buffer per well.
Approximately 100,000 cells total, comprising a 50:50 mix of CFSE-labeled A375M cells and transfected 293 cells, were used in each reaction as follows. 100 μL of CFSE-labeled A375M cells and 100 μL of 293 cells were dispensed into a V-bottom plate. The cells in the plate were pelleted at 1500 rpm for 3 minutes, and then resuspended in 100 μL FACS buffer. The pelleting step was repeated, and the FACS buffer supernatant was removed. The harvested antibody-containing supernatants, or control primary antibodies were added in a volume of 50 μL and the cells were resuspended. […] The plate was incubated on ice for 45 minutes, after which 100 μL FACS buffer was added to dilute the primary antibody. The cells were then pelleted by centrifuging at 1500 rpm for 3 minutes, and the pellet was resuspended in 100 μL FACS buffer. The pelleting step was repeated, and the FACS buffer supernatant was removed. Cells were then resuspended in the appropriate secondary antibody (5 μg/ml) with 7AAD dye (10 μg/ml), and stained on ice for 7 minutes. Then 150 μL of FACS buffer was added and the cells were pelLeted at 1500 rpm for 3 minutes, after which the cells were washed in 100 μL FACS buffer, pelleted, and then resuspended in 250 μL buffer and added to FACS tubes.

[2] = target: T2, α4β1 integrin (on J6.77 cells) (UniProt P13612 34-1032; P05556 21-798, limits assumed); test: cell-based or functional assay
[3] = target: T1, human αV on parental A375M cells, which …; test: cell-based or functional assay
[4] = target: T3, α5β1 integrin (on K562 cells) (UniProt P08648 42-1049; P05556 21-798, limits assumed); test: cell-based or functional assay
[5] = target: T3, α5β1 integrin (on K562 cells); test: cell-based or functional assay; remark: listed apart in the source
[6] = target: T2, α4β1 integrin (on J6.77 cells); test: cell-based or functional assay; remark: listed apart in the source
[7] = target: T4, human αVβ6 integrin on cells (human, UniProt P06756 31-1048; P18564 22-788); test: cell-based or functional assay
[8] = target: T5, cynomolgus αVβ6 on cells (cynomolgus, UniProt A0A2K5WCD3 31-1048; A0A2K5TZ36 22-787); test: FACS, HEK-293 transfected with cynomolgus αV and β6
T5 construct: whole, on cells; also called macaque αVβ6; Mac AVB6
Method: Cross-reactivity of the antibody-containing supernatants to macaque αVβ6 was tested on the supernatants using FACS analysis on HEK-293 cells transiently transfected with cynomolgus αV and cynomolgus β6.
HEK-293 cells were transiently transfected with cynomolgus αV and cynomolgus β6. After 48 hours, the cells were collected and resuspended in FACS buffer to reach a final concentration of approximately 50,000 cells in 100 μL.
Approximately 100,000 cells total, comprising a 50:50 mix of CFSE-labeled A375M cells and transfected 293 cells, were used in each reaction as follows. 100 μL of CFSE-labeled A375M cells and 100 μL of 293 cells were dispensed into a V-bottom plate. The cells in the plate were pelleted at 1500 rpm for 3 minutes, and then resuspended in 100 μL FACS buffer. The pelleting step was repeated, and the FACS buffer supernatant was removed. The harvested antibody-containing supernatants, or control primary antibodies were added in a volume of 50 μL and the cells were resuspended. […] The plate was incubated on ice for 45 minutes, after which 100 μL FACS buffer was added to dilute the primary antibody. The cells were then pelleted by centrifuging at 1500 rpm for 3 minutes, and the pellet was resuspended in 100 μL FACS buffer. The pelleting step was repeated, and the FACS buffer supernatant was removed. Cells were then resuspended in the appropriate secondary antibody (5 μg/ml) with 7AAD dye (10 μg/ml), and stained on ice for 7 minutes. Then 150 μL of FACS buffer was added and the cells were pelLeted at 1500 rpm for 3 minutes, after which the cells were washed in 100 μL FACS buffer, pelleted, and then resuspended in 250 μL buffer and added to FACS tubes. Samples were analyzed on a high throughput FACS machine and analyzed using Cell Quest Pro software.

[9] = target: T4, human αVβ6 integrin on cells; test: FMAT, HEK 293 cells overexpressing αVβ6, supernatant
[10] = target: T4, human αVβ6 integrin on cells; test: cell-based or functional assay; remark: listed apart in the source
[11] = target: T6, soluble αVβ6 (human, UniProt P06756 31-992; P18564 22-709); test: Biacore, mAb captured on anti-human IgG, soluble αVβ6 injected, 1:1 fit
T6 construct: extracellular domain; also called soluble αVβ6 protein; soluble antigen
T6 sequence (P06756 31-992, chain 1 of 2): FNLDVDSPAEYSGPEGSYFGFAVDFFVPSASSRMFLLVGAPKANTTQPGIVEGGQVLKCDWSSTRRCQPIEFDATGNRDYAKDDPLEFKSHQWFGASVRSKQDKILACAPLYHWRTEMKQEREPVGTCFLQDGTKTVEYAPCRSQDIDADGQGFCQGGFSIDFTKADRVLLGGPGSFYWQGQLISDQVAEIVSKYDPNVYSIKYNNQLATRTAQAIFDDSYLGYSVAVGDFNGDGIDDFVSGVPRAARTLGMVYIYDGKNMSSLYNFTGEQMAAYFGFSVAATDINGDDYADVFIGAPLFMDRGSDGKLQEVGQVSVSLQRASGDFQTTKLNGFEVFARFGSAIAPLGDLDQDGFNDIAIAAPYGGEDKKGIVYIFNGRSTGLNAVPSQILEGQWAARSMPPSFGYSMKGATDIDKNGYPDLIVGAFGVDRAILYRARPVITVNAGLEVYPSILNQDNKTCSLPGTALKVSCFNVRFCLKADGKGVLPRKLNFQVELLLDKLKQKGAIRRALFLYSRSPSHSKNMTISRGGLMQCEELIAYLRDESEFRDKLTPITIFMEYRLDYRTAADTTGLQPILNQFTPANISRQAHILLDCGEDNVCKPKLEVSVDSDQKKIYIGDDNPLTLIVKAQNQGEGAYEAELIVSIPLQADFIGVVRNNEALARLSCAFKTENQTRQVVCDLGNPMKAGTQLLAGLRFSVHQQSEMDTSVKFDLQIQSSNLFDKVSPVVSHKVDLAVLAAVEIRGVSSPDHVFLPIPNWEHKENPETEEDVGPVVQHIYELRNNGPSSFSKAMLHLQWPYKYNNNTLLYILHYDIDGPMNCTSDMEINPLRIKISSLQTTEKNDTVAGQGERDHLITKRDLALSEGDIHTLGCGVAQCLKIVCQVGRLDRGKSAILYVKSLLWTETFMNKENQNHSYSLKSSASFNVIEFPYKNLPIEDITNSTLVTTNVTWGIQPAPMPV
T6 sequence (P18564 22-709, chain 2 of 2): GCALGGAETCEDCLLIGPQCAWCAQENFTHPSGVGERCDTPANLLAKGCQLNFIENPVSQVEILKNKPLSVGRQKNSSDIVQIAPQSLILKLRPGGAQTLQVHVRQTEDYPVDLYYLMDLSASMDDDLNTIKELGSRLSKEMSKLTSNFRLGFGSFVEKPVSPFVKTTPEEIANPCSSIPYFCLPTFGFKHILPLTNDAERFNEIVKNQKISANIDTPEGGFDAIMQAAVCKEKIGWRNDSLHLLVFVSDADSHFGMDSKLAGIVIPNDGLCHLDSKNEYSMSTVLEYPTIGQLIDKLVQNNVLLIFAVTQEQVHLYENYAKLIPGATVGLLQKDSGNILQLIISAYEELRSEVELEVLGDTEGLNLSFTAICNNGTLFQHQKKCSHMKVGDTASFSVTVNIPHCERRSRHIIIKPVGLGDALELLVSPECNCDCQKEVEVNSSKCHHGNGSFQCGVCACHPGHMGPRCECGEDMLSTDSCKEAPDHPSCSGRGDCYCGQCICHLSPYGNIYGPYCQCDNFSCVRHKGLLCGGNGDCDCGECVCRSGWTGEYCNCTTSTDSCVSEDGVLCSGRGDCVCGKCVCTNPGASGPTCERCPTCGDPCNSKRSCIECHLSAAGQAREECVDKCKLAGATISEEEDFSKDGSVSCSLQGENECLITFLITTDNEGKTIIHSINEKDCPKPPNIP
Method: The Biacore analysis was performed as follows. A high-density goat α human IgG antibody surface over two CM5 Biacore chips was prepared using routine amine coupling. Each mAb was diluted in degassed HBS-P running buffer containing 100 μg/ml BSA, 1 mM MgCl₂, and 1 mM CaCl₂ to a concentration of approximately 1 μg/mL. […] A 4-minute wash step at 50 μL/min followed to stabilize the mAb baseline.
A 10-minute dissociation followed each antigen injection. The antigen samples were prepared in the HBS-P running described above. All samples were randomly injected in triplicate with several mAb capture/buffer inject cycles interspersed for double referencing. […] A flow rate of 50 μL/min was used for all antigen injection cycles.
The data were then fit to a 1:1 interaction model with the inclusion of a term for mass transport using CLAMP.

T3 sequence (P08648 42-1049 limits assumed, chain 1 of 2): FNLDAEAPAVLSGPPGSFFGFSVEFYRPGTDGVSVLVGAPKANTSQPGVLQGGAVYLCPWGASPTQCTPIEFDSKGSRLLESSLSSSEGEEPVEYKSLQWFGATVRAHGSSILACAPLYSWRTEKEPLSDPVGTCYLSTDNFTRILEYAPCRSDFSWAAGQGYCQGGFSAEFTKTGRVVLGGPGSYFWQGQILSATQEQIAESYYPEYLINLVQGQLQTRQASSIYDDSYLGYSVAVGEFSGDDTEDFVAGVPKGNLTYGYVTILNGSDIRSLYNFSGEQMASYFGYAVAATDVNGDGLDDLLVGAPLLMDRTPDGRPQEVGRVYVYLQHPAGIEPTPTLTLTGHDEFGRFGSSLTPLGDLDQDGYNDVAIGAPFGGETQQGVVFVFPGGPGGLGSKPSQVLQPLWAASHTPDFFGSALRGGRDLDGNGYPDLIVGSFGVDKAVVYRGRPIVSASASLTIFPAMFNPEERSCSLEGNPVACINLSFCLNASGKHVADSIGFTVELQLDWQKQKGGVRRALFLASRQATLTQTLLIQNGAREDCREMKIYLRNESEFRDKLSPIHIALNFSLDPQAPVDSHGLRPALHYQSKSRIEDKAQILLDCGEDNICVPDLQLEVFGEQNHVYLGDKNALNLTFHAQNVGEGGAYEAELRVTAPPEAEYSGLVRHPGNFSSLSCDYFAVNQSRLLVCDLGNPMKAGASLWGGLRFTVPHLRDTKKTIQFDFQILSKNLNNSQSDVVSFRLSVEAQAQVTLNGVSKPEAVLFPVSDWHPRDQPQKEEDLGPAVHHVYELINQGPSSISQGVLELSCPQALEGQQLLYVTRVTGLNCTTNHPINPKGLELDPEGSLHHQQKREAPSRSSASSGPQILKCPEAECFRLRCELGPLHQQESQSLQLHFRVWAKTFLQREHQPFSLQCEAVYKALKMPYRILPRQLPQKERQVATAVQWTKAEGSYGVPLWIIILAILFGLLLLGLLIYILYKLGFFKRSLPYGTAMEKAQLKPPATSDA
T3 sequence (P05556 21-798 limits assumed, chain 2 of 2): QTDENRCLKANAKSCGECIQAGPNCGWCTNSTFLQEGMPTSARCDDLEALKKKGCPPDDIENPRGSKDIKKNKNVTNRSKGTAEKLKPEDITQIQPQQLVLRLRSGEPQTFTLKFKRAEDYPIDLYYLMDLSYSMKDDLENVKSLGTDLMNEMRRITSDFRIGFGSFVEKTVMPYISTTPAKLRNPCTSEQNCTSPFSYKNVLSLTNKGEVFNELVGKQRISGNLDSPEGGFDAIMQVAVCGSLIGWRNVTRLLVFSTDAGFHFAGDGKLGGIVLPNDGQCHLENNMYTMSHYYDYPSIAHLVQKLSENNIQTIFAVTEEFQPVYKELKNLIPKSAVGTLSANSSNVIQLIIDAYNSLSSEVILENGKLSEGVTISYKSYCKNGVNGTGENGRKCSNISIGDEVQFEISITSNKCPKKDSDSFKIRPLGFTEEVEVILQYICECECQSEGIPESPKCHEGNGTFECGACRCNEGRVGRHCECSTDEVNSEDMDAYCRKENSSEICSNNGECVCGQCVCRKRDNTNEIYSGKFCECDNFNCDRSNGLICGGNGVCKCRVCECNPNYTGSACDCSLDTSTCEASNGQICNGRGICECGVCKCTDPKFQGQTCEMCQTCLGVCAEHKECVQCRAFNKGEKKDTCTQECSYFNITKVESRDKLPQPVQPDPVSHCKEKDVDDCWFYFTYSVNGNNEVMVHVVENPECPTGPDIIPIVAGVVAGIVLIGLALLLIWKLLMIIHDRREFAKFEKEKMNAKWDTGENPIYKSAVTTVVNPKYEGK
T1 sequence (P06756 31-1048 A375M): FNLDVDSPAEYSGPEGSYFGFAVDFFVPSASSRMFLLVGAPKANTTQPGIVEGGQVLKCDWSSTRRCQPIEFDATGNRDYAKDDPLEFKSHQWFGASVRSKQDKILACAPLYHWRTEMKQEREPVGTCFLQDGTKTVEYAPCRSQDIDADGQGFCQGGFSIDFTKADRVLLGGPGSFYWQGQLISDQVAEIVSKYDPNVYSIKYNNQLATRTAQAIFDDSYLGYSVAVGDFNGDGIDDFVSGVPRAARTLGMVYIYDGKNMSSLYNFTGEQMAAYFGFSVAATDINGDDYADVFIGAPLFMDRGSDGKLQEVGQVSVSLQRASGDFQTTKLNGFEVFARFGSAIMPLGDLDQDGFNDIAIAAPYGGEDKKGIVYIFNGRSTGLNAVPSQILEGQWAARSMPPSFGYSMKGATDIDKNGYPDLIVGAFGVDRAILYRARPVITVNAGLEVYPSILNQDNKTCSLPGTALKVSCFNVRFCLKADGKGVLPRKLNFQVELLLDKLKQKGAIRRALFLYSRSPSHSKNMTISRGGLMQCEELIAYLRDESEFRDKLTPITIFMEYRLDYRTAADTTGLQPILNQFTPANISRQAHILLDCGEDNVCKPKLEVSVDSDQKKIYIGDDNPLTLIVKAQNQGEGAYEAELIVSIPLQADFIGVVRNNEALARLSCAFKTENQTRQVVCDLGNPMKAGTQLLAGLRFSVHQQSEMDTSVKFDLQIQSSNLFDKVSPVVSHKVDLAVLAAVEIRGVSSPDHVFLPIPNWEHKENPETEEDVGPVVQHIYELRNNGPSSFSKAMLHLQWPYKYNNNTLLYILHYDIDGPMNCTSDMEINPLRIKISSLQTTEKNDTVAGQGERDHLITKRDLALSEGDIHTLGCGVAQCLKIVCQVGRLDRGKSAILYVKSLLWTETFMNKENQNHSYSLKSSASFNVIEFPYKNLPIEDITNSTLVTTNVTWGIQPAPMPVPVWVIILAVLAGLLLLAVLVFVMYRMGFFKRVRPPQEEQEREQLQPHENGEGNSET

- % Cells Shifted [1]: 20%
- GeoMean [1]: 1.74
B1: sc 49 (antibody, V domains shown)
VH: QVQLQESGPGLVKPSQTLSLTCTVAGGSIRSGDYYWSWIRQHPGKGLEWIGNIYYSGSTYYNPSLKSRITISVATSRNQFSLKLTSVTAADTAVYYCARGGAITIFGVFDYWGQGTLVTVSS
VL: not shown
notes: also called sc 049

- Percent Inhibition (J6.77 adhesion to CS-1 peptide of fibronectin, 5 ug/ml) [2]: -8%
- Percent Inhibition (A375M adhesion to osteopontin peptide, 5 µg/ml) [3]: 3%
- % Cells Shifted [1]: 46%
- GeoMean [1]: 2.35
- Percent Inhibition (K562 adhesion to FN9-10 peptide of fibronectin, 5 µg/ml) [4]: -4%
- % Inhibition (K562 adhesion to fibronectin) [5]: 3%
- Percent Inhibition (J6.77 adhesion to CS-1 peptide of fibronectin, 5 ug/ml) [6]: -30%
B2: sc 264 (antibody, V domains shown)
VH: QVQLQESGPGLVKPSQTLSLTCTVSGGSISSGGYYWSWIRQHPGKGLEWIGYIYYSGRTYNNPSLKSRVTISVDTSKNQFSLKLSSVTAADTAVYYCARVATGRGDYHFYAMDVWGQGTTVTVSS
VL: SYELTQPSSVSVSPGQTARITCSGDVLAKKSARWFHQKPGQAPVLVIYKDSERPSGIPERFSGSSSGTTVTLTISGAQVEDEAAYYCYSAADNNLVFGGGTKLTVL
notes: RGD in heavy chain CDR3

- Assay 1 % Inhibition (HT29 adhesion to TGFβLAP) [7]: 98%
- Assay 2 % Inhibition (HT29 adhesion to TGFβLAP) [7]: 101%
- Average % Inhibition (HT29 adhesion to TGFβLAP) [7]: 100%
- Percent Inhibition (J6.77 adhesion to CS-1 peptide of fibronectin, 5 ug/ml) [2]: -17%
- % Cells Shifted [8]: 35%
- GeoMean [8]: 33.4
- % Cells Shifted [1]: 23%
- GeoMean [1]: 1.86
- FMAT Count [9]: 28
- FMAT FL1 [9]: 382
- FMAT FL1 × Count [9]: 10700
- Estimated IC50, n = 1 (HT29 adhesion to TGFβLAP) [10]: 1.46 µg/mL
- Estimated IC50, n = 2 (HT29 adhesion to TGFβLAP) [10]: 0.54 µg/mL
- Estimated IC50, n = 3 (HT29 adhesion to TGFβLAP) [10]: 0.72 µg/mL
B3: sc 277 (antibody, V domains shown)
VH: EVQLVQSGAEVKKPGESLKISCKGSGYSFPSYWIGWVRQMPGKGLEWMGIIYPGDSDTRYSPSFQGQVTISADKSISTAYLQWSSLKASDTAMYYCARHPMEDGMDVWGQGTTVTVSS
VL: SYELTQPPSVSVSPGQTARITCSGDALPKKYAFWYQQKSGQAPVLVIYDDNKRPSGIPERFSGSSSGTMATLTITGAQVEDEADYYCYSTDSSGHHVFGGGTKLTVL

- Assay 1 % Inhibition (HT29 adhesion to TGFβLAP) [7]: 77%
- Assay 2 % Inhibition (HT29 adhesion to TGFβLAP) [7]: 46%
- Average % Inhibition (HT29 adhesion to TGFβLAP) [7]: 62%
- Percent Inhibition (J6.77 adhesion to CS-1 peptide of fibronectin, 5 ug/ml) [2]: -14%
- % Cells Shifted [1]: 18%
- GeoMean [1]: 1.78
- Estimated IC50, n = 1 (HT29 adhesion to TGFβLAP) [10]: 4.07 µg/mL
- Estimated IC50, n = 2 (HT29 adhesion to TGFβLAP) [10]: 2.03 µg/mL
- Estimated IC50, n = 3 (HT29 adhesion to TGFβLAP) [10]: 3.26 µg/mL
B4: sc 58 (antibody, V domains shown)
VH: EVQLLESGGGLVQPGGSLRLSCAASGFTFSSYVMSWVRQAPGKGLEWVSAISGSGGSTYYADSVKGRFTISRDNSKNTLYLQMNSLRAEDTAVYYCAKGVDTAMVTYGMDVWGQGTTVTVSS
VL: SYELTQPPSVSVSPGQTARITCSGDALPKKYAYWYQQKSGQAPVLVIYDDSKRPSGIPERFSGSSSGTMATLTISGAQVEDEADYYCYSTDSSGNHRVFGGGTKLTVL
notes: also called sc 058

- Assay 1 % Inhibition (HT29 adhesion to TGFβLAP) [7]: 98%
- Assay 2 % Inhibition (HT29 adhesion to TGFβLAP) [7]: 106%
- Average % Inhibition (HT29 adhesion to TGFβLAP) [7]: 102%
- Percent Inhibition (J6.77 adhesion to CS-1 peptide of fibronectin, 5 ug/ml) [2]: 0%
- GeoMean [8]: 78.5
- FMAT Count [9]: 174
- FMAT FL1 [9]: 9180
- FMAT FL1 × Count [9]: 1.6e+06
- Estimated IC50, n = 1 (HT29 adhesion to TGFβLAP) [10]: 0.063 µg/mL
- Estimated IC50, n = 2 (HT29 adhesion to TGFβLAP) [10]: 0.037 µg/mL
- Estimated IC50, n = 3 (HT29 adhesion to TGFβLAP) [10]: 0.037 µg/mL
- Percent Inhibition (K562 adhesion to FN9-10 peptide of fibronectin, 5 µg/ml) [4]: -9%
- Kd [11]: 34.9 nM
B5: sc 254 (antibody, V domains shown)
VH: QVQLQESGPGLVKPSQTLSLTCTVSGGSISSGGYYWSWIRQHPGKGLEWIGYIYYSGSTYYNPSLKSRVTISVDTSKNQFSLKLSSVTAADTAMYYCARYRGPAAGRGDFYYFGMDVWGQGTTVTVSS
VL: DIVMTQTPLSLSVTPGQPASIFCKSSQSLLNSDGKTYLCWYLQKPGQPPQLLIYEVSNRFSGVPDRFSGSGSGTDFTLKISRVEAEDVGVYYCMQGIQLPWAFFGQGTKVEIK

- Assay 1 % Inhibition (HT29 adhesion to TGFβLAP) [7]: 98%
- Assay 2 % Inhibition (HT29 adhesion to TGFβLAP) [7]: 106%
- Average % Inhibition (HT29 adhesion to TGFβLAP) [7]: 102%
- Percent Inhibition (J6.77 adhesion to CS-1 peptide of fibronectin, 5 ug/ml) [2]: 12%
- % Cells Shifted [8]: 14%
- GeoMean [8]: 33
- % Cells Shifted [1]: 11%
- GeoMean [1]: 16.7
- FMAT Count [9]: 23
- FMAT FL1 [9]: 725
- FMAT FL1 × Count [9]: 16700
- Estimated IC50, n = 1 (HT29 adhesion to TGFβLAP) [10]: 2.41 µg/mL
- Estimated IC50, n = 2 (HT29 adhesion to TGFβLAP) [10]: 0.137 µg/mL
B6: sc 161 (antibody, V domains shown)
VH: EVQLVQSGAEVKKPGESLKISCKGSGYSFTSYWIGWVRQMPGKGLEWMGIIYPGDSDTRYSPSFQGQVTISADKSISTAYLQWSSLKASDTAMYYCARHGIAAAGFYYYYMDVWGQGTTVTVSS
VL: EIVLTQSPDTLSLSPGERASLSCRASQNVNRNYLVWYQQKPGQAPRLLIYGTSNRATGIPDRFSGSGSGTDFTLTISRLEPEDFAVYYCQQCGSLPFTFGPGTKVDIKR

- Assay 1 % Inhibition (HT29 adhesion to TGFβLAP) [7]: 98%
- Assay 2 % Inhibition (HT29 adhesion to TGFβLAP) [7]: 102%
- Average % Inhibition (HT29 adhesion to TGFβLAP) [7]: 100%
- Percent Inhibition (J6.77 adhesion to CS-1 peptide of fibronectin, 5 ug/ml) [2]: -7%
- Percent Inhibition (A375M adhesion to osteopontin peptide, 5 µg/ml) [3]: 9%
- % Cells Shifted [8]: 53%
- GeoMean [8]: 63.1
- % Cells Shifted [1]: 45%
- GeoMean [1]: 2.14
- FMAT Count [9]: 102
- FMAT FL1 [9]: 2140
- FMAT FL1 × Count [9]: 218000
- Estimated IC50, n = 1 (HT29 adhesion to TGFβLAP) [10]: 0.029 µg/mL
- Estimated IC50, n = 2 (HT29 adhesion to TGFβLAP) [10]: 0.025 µg/mL
- Estimated IC50, n = 3 (HT29 adhesion to TGFβLAP) [10]: 0.033 µg/mL
- Percent Inhibition (K562 adhesion to FN9-10 peptide of fibronectin, 5 µg/ml) [4]: 2%
- Kd [11]: 21 nM
- koff [11]: 0.00118 s⁻¹
- kon [11]: 56500 M⁻¹ s⁻¹
B7: sc 298 (antibody, V domains shown)
VH: QVQLVESGGGVVQPGRSLRLSCAASGFTFSSYGMHWVRQAPGKGLEWVAVIWYGGSNKYYADSVKGRFTISRDNSKNTLYLQMNSLRAEDTAVYYCARDLAARRGDYYYYGMDVWGQGTTVTVSS
VL: SSELTQDPVVSVALGQTVRITCQGDSLRSYYLSWYQQKPGQAPVLVIYGKNNRPSGIPDRFSGSNSGNTASLTITGAQAEDEADYYCNSRDSSGNHLFGGGTKLTVL

- GeoMean [8]: 61.8
- GeoMean [1]: 2.14
B8: sc 374 (antibody, V domains shown)
VH: B7 VH with G54D, D99T, L100E, A101G, A102I, R103A, R104A, G105R, D106L
VL: not shown

- Percent Inhibition (J6.77 adhesion to CS-1 peptide of fibronectin, 5 ug/ml) [2]: -7%
- % Cells Shifted [1]: 24%
- GeoMean [1]: 1.84
B9: sc 97 (antibody, V domains shown)
VH: EVQLVQSGAEVKKPGESLKISCKGSGYSFTSYWIGWVRQMPGKGLEWMGIIYPGDSDTRYSPSFQGQVILSADKSISTAYLQWSSLKASDTAMYYCARHDESSGYYYVFDIWGQGTMVTVSS
VL: SYELTQPPSVSVSPGQTARITCSGDALPKKYAYWYQQKSGQAPVLVIYEDIKRPSGIPERFSGSSSGTMATLTISGAQVEDEADYYCYSTDSSGNHWVFFGGGTKLTVL
notes: also called sc 097

- Percent Inhibition (J6.77 adhesion to CS-1 peptide of fibronectin, 5 ug/ml) [2]: -8%
- % Cells Shifted [1]: 15%
- GeoMean [1]: 23.2
B10: sc 320 (antibody, V domains shown)
VH: EVQLVESGGGLVKPGGSLRLSCAASGYTFTNYIMHWVRQAPGKGLEWVSSISISSSYIYYADSVKGRFTISRDNAKNSLYLQMNSLRAEDTAVYYCARDPVPLERRDYYYGMDVWGQGTTVTVSS
VL: QSVLTQPPSMSAAPGQKVTISCSGSSSNIGNNYVSWYQQLPGTAPKLLIYDNNKRPSGIPDRFSGSKSGTSATLGITGLQTGDEADYYCGTWDSSLSAGVFGGGTKLTVL
